From US20080171347A1

Molecular target: mouse synaptosomes (synaptosome preparation carrying the BoNT/A acceptor complex)

With “inactivated BoNT/A (toxoid) (from UniProt P0DPI1 2-1296)” the percent inhibition (maximum) was 98%.
